Assay results reported in patent US20170189507A1.

Target: HLA-A*24 (human)
Assay: UV-ligand exchange ELISA

| Binder | peptide exchange yield |
| --- | --- |
| TYTTVPRVAF [peptide SEQ ID No 172] | > 75% |
| VYPWLGALL [peptide SEQ ID No 177] | > 75% |
| IFIEVFSHF [peptide SEQ ID No 178] | 50 to 75% |
| MYDSYWRQF [peptide SEQ ID No 179] | > 75% |
| IYDDSFIRPVTF [peptide SEQ ID No 180] | 50 to 75% |
| LYLDIINLF [peptide SEQ ID No 181] | > 75% |
| IYQLDTASI [peptide SEQ ID No 182] | 50 to 75% |
| VFTSTARAF [peptide SEQ ID No 183] | 50 to 75% |
| VFQNFPLLF [peptide SEQ ID No 184] | > 75% |
| IYKVGAPTI [peptide SEQ ID No 185] | 50 to 75% |
| IFPQFLYQF [peptide SEQ ID No 186] | > 75% |
| TYLRDQHFL [peptide SEQ ID No 187] | > 75% |
| RYFKGLVF [peptide SEQ ID No 188] | 50 to 75% |
| WYVNGVNYF [peptide SEQ ID No 189] | 20 to 49% |
| GFFIFNERF [peptide SEQ ID No 190] | 50 to 75% |
| VFKASKITF [peptide SEQ ID No 191] | 50 to 75% |
| SYALLTYMI [peptide SEQ ID No 192] | > 75% |
| RFHPTPLLL [peptide SEQ ID No 193] | > 75% |
| EFGSLHLEFL [peptide SEQ ID No 194] | < 20% |
| LYLDKATLI [peptide SEQ ID No 198] | 50 to 75% |
| FYSRLLQKF [peptide SEQ ID No 203] | 50 to 75% |
| VHIPEVYLI [peptide SEQ ID No 205] | 50 to 75% |
| EYQENFLSF [peptide SEQ ID No 206] | 50 to 75% |
| TYTQDFNKF [peptide SEQ ID No 208] | 50 to 75% |
| IYTMIYRNL [peptide SEQ ID No 210] | > 75% |

| Binder | peptide exchange yield |
| --- | --- |
| YYLEVGKTLI [peptide SEQ ID No 211] | > 75% |
| LYLKLWNLI [peptide SEQ ID No 214] | 50 to 75% |
| YFDKVVTL [peptide SEQ ID No 215] | 20 to 49% |
| QYSSVFKSL [peptide SEQ ID No 216] | > 75% |
| FFPPTRQMGLLF [peptide SEQ ID No 217] | > 75% |
| EYPLVINTL [peptide SEQ ID No 219] | 50 to 75% |
| RYSTGLAGNLL [peptide SEQ ID No 221] | 50 to 75% |
| KYIPYKYVI [peptide SEQ ID No 223] | 50 to 75% |
| QYLENLEKL [peptide SEQ ID No 224] | 50 to 75% |
| YYVYIMNHL [peptide SEQ ID No 225] | 50 to 75% |
| VYRDETGELF [peptide SEQ ID No 226] | 50 to 75% |
| IFLDYEAGTLSF [peptide SEQ ID No 227] | > 75% |
| KYTSWYVAL [peptide SEQ ID No 228] | > 75% |
| KYMVYPQTF [peptide SEQ ID No 267] | > 75% |
| LYHDIFSRL [peptide SEQ ID No 271] | > 75% |
| QYLQDAYSF [peptide SEQ ID No 272] | > 75% |
| TYIKPISKL [peptide SEQ ID No 273] | 50 to 75% |
| AYLHSHALI [peptide SEQ ID No 274] | > 75% |
| EYINQGDLHEF [peptide SEQ ID No 275] | 50 to 75% |
| VYGFQWRHF [peptide SEQ ID No 276] | > 75% |
| RYISDQLFTNF [peptide SEQ ID No 278] | > 75% |
| TYIESASEL [peptide SEQ ID No 279] | 50 to 75% |
| RYPDNLKHLYL [peptide SEQ ID No 280] | > 75% |
| KFVDSTFYL [peptide SEQ ID No 282] | > 75% |
| TYGDAGLTYTF [peptide SEQ ID No 283] | 50 to 75% |

| Binder | peptide exchange yield |
| --- | --- |
| RYLNKAFHI [peptide SEQ ID No 284] | 50 to 75% |
| RYPDNLKHL [peptide SEQ ID No 286] | 20 to 49% |
| VYVSDIQEL [peptide SEQ ID No 288] | 50 to 75% |
| KYPVEWAKF [peptide SEQ ID No 289] | > 75% |
| HYSQELSLLYL [peptide SEQ ID No 158] | > 75% |
| LYNKGFIYL [peptide SEQ ID No 159] | > 75% |
| VYTLDIPVL [peptide SEQ ID No 160] | > 75% |
| IYLVSIPEL [peptide SEQ ID No 161] | > 75% |
| VFTRVSSFL [peptide SEQ ID No 162] | 50 to 75% |
| DYLKGLASF [peptide SEQ ID No 163] | > 75% |
| KFSSFSLFF [peptide SEQ ID No 164] | 50 to 75% |
| DYTTWTALL [peptide SEQ ID No 165] | > 75% |
| YYVESGKLF [peptide SEQ ID No 166] | > 75% |
| NYINRILKL [peptide SEQ ID No 167] | > 75% |
| KYQDILETI [peptide SEQ ID No 168] | > 75% |
| AYTLIAPNI [peptide SEQ ID No 169] | 50 to 75% |
| VYEDQVGKF [peptide SEQ ID No 170] | 20 to 49% |
| LFIPSSKLLFL [peptide SEQ ID No 171] | 50 to 75% |
| IYSWILDHF [peptide SEQ ID No 173] | > 75% |
| VYVGGGQIIHL [peptide SEQ ID No 174] | 50 to 75% |
| YYEVHKELF [peptide SEQ ID No 175] | > 75% |
| EYNQWFTKL [peptide SEQ ID No 176] | 50 to 75% |
| TYSVSFPMF [peptide SEQ ID No 195] | > 75% |
| LYIDRPLPYL [peptide SEQ ID No 196] | 50 to 75% |
| EYSLFPGQVVI [peptide SEQ ID No 197] | 50 to 75% |
